Source: the supplement of paper PMC12042874
± gives the uncertainty stated by the source.

Test: amyloid nucleation score (Sup35N fusion, yeast selection) (log enrichment); library NNK2; higher = more nucleation; inactive = no reads after selection
Procedure, shortened: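 Nucleation score is defined as the DiMSum log enrichment of output over input reads, with centring on the mode score of non-aggregating sequences. A minimum of 100 input reads was required for each sequence. Reads came from Illumina sequencing of plasmid inserts from psi-negative yeast expressing Sup35N fused to peptides of 20 random codons, induced with 100 μM copper sulfate for 24 hours and grown 7 days at 30°C on medium lacking adenine and uracil.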

DKYAGCNSDDINWMKDRVSG
amyloid nucleation score: 0.029 ± 0.5

YGFEAFWDNLQPAFTVPRVM
amyloid nucleation score: inactive

ILTGR
amyloid nucleation score: -0.16 ± 0.55

AITSLYSRSLFLVLTCTVCF
amyloid nucleation score: 5.683 ± 0.055

FYYYLFFLAIISCTGYLALS
amyloid nucleation score: 0.286 ± 0.42

SYTWFSYIWYSLVFLRD
amyloid nucleation score: -0.088 ± 0.8

NGLQRLITNSKFPTRWTWFG
amyloid nucleation score: 0.206 ± 0.33

GDQPRPKMLLSWHRFLLQQS
amyloid nucleation score: 0.887 ± 0.19

GKMPIRNNKVLLKRSATNLC
amyloid nucleation score: 5.63 ± 0.067

HNYVINESFFFLVVVYVDAG
amyloid nucleation score: 7.6 ± 0.037

NFLWVLSRKSHGIPYRKFSN
amyloid nucleation score: inactive

SGPSFILSWS
amyloid nucleation score: -0.371 ± 0.63

GSVRSMVGFNACRTSLYESC
amyloid nucleation score: 0.012 ± 1

RIFMWAYLAYCDNISEVRRR
amyloid nucleation score: -0.554 ± 1

TLLKHTSSTSIVYRRHALEI
amyloid nucleation score: 1.35 ± 0.29

NWSVILYIRACTASNIEWLS
amyloid nucleation score: 1.52 ± 0.44

LLGMVNTQLKGNHSYTYKSG
amyloid nucleation score: -1.14 ± 0.55

RFCGVVLSHSSD
amyloid nucleation score: 7.913 ± 0.03

LWREYLVHGSP
amyloid nucleation score: 0.329 ± 0.5

TFGRRATDNAASMPVSMRGR
amyloid nucleation score: 0.424 ± 0.64

FVLNYLI
amyloid nucleation score: 0.709 ± 0.17

RTVTNEGTCFNGWLCYAREG
amyloid nucleation score: 10.15 ± 0.063

QIVWLHCLFRRFSNGATSDD
amyloid nucleation score: -0.122 ± 0.23

KGMLGAASHSQIKFVCVFSW
amyloid nucleation score: -0.493 ± 0.32

FGSAFTNGSVRNYVDGVQVI
amyloid nucleation score: 0.648 ± 0.74

SYYVLRASTELYGFHVFFLR
amyloid nucleation score: -0.017 ± 1

NVIRHLPPSYWRSLHSQMFP
amyloid nucleation score: inactive

YYEMFCYSCPSDRPGISNDA
amyloid nucleation score: 8.827 ± 0.035

QFSLLTKYTNVHILGSEEFG
amyloid nucleation score: 0.388 ± 0.36

SYNTRFIASSCSGSY
amyloid nucleation score: -1.06 ± 0.76

REAMTCIFDLKYAGLASVWW
amyloid nucleation score: -0.532 ± 1

VDYVGSYTVSEDREENLAKP
amyloid nucleation score: 3.75 ± 0.096

IQDLRFNITVTMPLESVSFM
amyloid nucleation score: 7.046 ± 0.058

KSAYIGASNHAEIRHQSLSS
amyloid nucleation score: 0.253 ± 0.24

SGNVYFLQNRFSVAKQNYTL
amyloid nucleation score: -0.448 ± 0.79

WASWRSYSMWLDLLCFRSRG
amyloid nucleation score: 0.155 ± 0.33

TRYRLDACRGHAWYSVFFLM
amyloid nucleation score: -0.286 ± 0.49

SSPLVNRFPEGVYMNCK
amyloid nucleation score: -0.15 ± 0.49

YKRLEMLRMSCTIWTITPPR
amyloid nucleation score: 0.234 ± 0.32

DACWFMIGHIGFC
amyloid nucleation score: inactive

FLQNWKLYRCCLRVASVGGR
amyloid nucleation score: 4.67 ± 0.11

RWMRTSAGGCGSKVVWNLLG
amyloid nucleation score: 0.682 ± 0.24

AIVDFTKNFIQCAY
amyloid nucleation score: inactive

VGGGVHGEFGHHYCPSVLGL
amyloid nucleation score: 1.81 ± 0.2

SLMCIIFLQYWNLLLTIRVT
amyloid nucleation score: inactive

LYFDVTQ
amyloid nucleation score: -0.611 ± 0.32

RRIIQCSDEFVLYQCNMLRC
amyloid nucleation score: 0.759 ± 0.41

RLTPYTFTWSVFEMFNLRMP
amyloid nucleation score: -1.09 ± 0.49

VFLYAYYLNI
amyloid nucleation score: 0.039 ± 0.77

VVELKELAYQGNGIVLIMED
amyloid nucleation score: -0.066 ± 0.41

HYWNWYVEL
amyloid nucleation score: 4.582 ± 0.037

LCFSVNLARNLWLDNWVGGR
amyloid nucleation score: 6.12 ± 0.084

VGFRSSCMVTSLIY
amyloid nucleation score: -1.64 ± 0.44

CLLLRVTR
amyloid nucleation score: 0.015 ± 0.27

WLLNLERDIFLLTLSGRMIK
amyloid nucleation score: 0.449 ± 0.8

TLCMRLN
amyloid nucleation score: 1.64 ± 0.086

DCLRCNHYTVCNMYDRFFLL
amyloid nucleation score: inactive

IALGLNSYGK
amyloid nucleation score: -1.74 ± 0.78

KMTRLLFYWSFGCGLIHLVC
amyloid nucleation score: -0.464 ± 1.1

PFSYFRWWPYRILAWSTWLV
amyloid nucleation score: 4.89 ± 0.061

CFVNGLRNSHLGNLVWVPIG
amyloid nucleation score: -1 ± 0.39

DWRRWM
amyloid nucleation score: 0.422 ± 0.5

MAKIFFPNRQVIPPTRMQRV
amyloid nucleation score: 1.12 ± 0.47

SFRLQIRV
amyloid nucleation score: -0.417 ± 0.23

QRDHWNAALCKVLLLSGLLR
amyloid nucleation score: 0.057 ± 0.33

HCLEMGCGLYNAR
amyloid nucleation score: 9.476 ± 0.071

FVFLFMRLKDGFYATIYISH
amyloid nucleation score: inactive

YDLPFYAKEHGLPFVQWGNW
amyloid nucleation score: 0.261 ± 0.22

RCPRSKLVIMDRASVLEGGR
amyloid nucleation score: 0.559 ± 0.32

FYYSLTMRLD
amyloid nucleation score: -0.322 ± 0.42

VIVGSLRCHFSLVAWVKC
amyloid nucleation score: 0.651 ± 0.51

LGPLVMVFCVRIPYTTMVAW
amyloid nucleation score: -1.25 ± 0.45

GFWKTYNTFVLSWSRTNCLQ
amyloid nucleation score: 0.431 ± 0.64

NARVL
amyloid nucleation score: -0.853 ± 0.64

YFNFDL
amyloid nucleation score: -0.313 ± 0.76

NRGISLGIHLRPGCMCAAHR
amyloid nucleation score: 0.005 ± 1

IILIYVCRRPCLISQDNAFF
amyloid nucleation score: inactive

RYPFFEMVRSTMQSMIENQ
amyloid nucleation score: 0.612 ± 0.3

ALYETTVPLLVWLGA
amyloid nucleation score: 0.463 ± 0.24

VLVVSRA
amyloid nucleation score: -0.514 ± 0.45

QFSSLVFAEEKMNPRMCMVR
amyloid nucleation score: -0.294 ± 0.2

RALLW
amyloid nucleation score: -0.094 ± 1

FIFDR
amyloid nucleation score: -0.257 ± 0.54

GTCLSFYEFNSWWIIKMFSK
amyloid nucleation score: 0.657 ± 0.23

CSVVTNGLLNMSSFPHVFCM
amyloid nucleation score: 1.79 ± 0.11

SLYFGIRYENRERCLFDLHV
amyloid nucleation score: 2.42 ± 0.17

VHDQIPE
amyloid nucleation score: 0.071 ± 0.79

MQAMRRGQKYKSGRVIYVRG
amyloid nucleation score: -0.554 ± 0.63

HQRLTRVLYWKVDIGQVCGI
amyloid nucleation score: 4.99 ± 0.065

LVQCLLYSLWCQALSQPMYV
amyloid nucleation score: -0.753 ± 1

VAYVQCD
amyloid nucleation score: 0.035 ± 0.39

ILVWLGQTEEASVDRRAQHT
amyloid nucleation score: 0.43 ± 0.32

GWRCSNPPASIKWCATLYSV
amyloid nucleation score: 2.08 ± 0.2

MYNRG
amyloid nucleation score: 3.87 ± 0.11

IFCWRVSCEQRVFYLIESGR
amyloid nucleation score: -0.388 ± 0.24

ATFFM
amyloid nucleation score: -0.011 ± 1.1

LHIGKFNVNLFN
amyloid nucleation score: 4.32 ± 0.045

QACRSTGNSFVLNRYMKERT
amyloid nucleation score: 0.215 ± 0.24

APFARSCDNWILGIFVFILG
amyloid nucleation score: 6.125 ± 0.042

VRCIE
amyloid nucleation score: -0.282 ± 0.28

WNINRIPFKVRWRAIFHMYH
amyloid nucleation score: -1.25 ± 0.37

TCLMVVE
amyloid nucleation score: 0.539 ± 0.66

RKLRVNWERCFHVSEAGLKV
amyloid nucleation score: 0.057 ± 1.1

YLLNLEF
amyloid nucleation score: inactive

MSYILFCLPSNARCFLP
amyloid nucleation score: inactive

FYATYSSLRLGVVTIIPPGL
amyloid nucleation score: 4.49 ± 0.087

GKILVAFLWPISCVR
amyloid nucleation score: 0.037 ± 0.65

GLLSCMPCRGINLLPSVIRR
amyloid nucleation score: 1.21 ± 0.61

RPKYCQVVAGLVNYGVRLVV
amyloid nucleation score: -0.262 ± 0.49

LQLASNVHEHKQNGLSHRIN
amyloid nucleation score: 0.439 ± 0.5

ARSNFLFRHNILFFVYFITS
amyloid nucleation score: -1.48 ± 1.1

CRMFSEHSYRRSSLSVPGMN
amyloid nucleation score: inactive

IIGDTICVVIIKWNLKNYRS
amyloid nucleation score: 3.67 ± 0.075

PDGSASIGGYYGQFLL
amyloid nucleation score: -0.746 ± 0.62

YPWLRIWCDRNDIEVGLVFA
amyloid nucleation score: -0.055 ± 0.79

YLSNKT
amyloid nucleation score: -0.515 ± 0.29

LSTANSNSRAVFIIKMRGLL
amyloid nucleation score: inactive

NPALSSWAEGSTP
amyloid nucleation score: 0.299 ± 0.61

STSIPCSEHDFVCYHMVCGF
amyloid nucleation score: -0.652 ± 0.37

LFNGTMY
amyloid nucleation score: inactive

VVFCGVFLCDCDNGESSSRY
amyloid nucleation score: 8.989 ± 0.071

ASGVIDIGYIIVEVVMIFYI
amyloid nucleation score: -0.697 ± 0.5

YICRNLISESLCLYYTGARG
amyloid nucleation score: 5.03 ± 0.065

ILQFKVGKGQGNAQLFKPII
amyloid nucleation score: -0.935 ± 0.55

ATLNVLDPHFYNMY
amyloid nucleation score: -0.691 ± 0.41

SSLDNIWSTSD
amyloid nucleation score: 0.337 ± 0.57

GSRCITQVLA
amyloid nucleation score: 0.157 ± 0.49
